Data taken from IntAct's records for PubMed 20700104.

B1: Caspase Dronc (Drosophila melanogaster (Fruit fly)), Q9XYF4 (parent)
chain: MQPPELEIGMPKRHREHIRKNLNILVEWTNYERLAMECVQQGILTVQMLRNTQDLNGKPFNMDEKDVRVEQHRRLLLKITQRGPTAYNLLINALRNINCLDAAVLLESVDESDSRPPFISLNERRTSRKSADIVDTPSPEASEGPCVSKLRNEPLGALTPYVGVVDGPEVKKSKKIHGGDSAILGTYKMQSRFNRGVLLMVNIMDYPDQNRRRIGAEKDSKSLIHLFQELNFTIFPYGNVNQDQFFKLLTMVTSSSYVQNTECFVMVLMTHGNSVEGKEKVEFCDGSVVDMQKIKDHFQTAKCPYLVNKPKVLMFPFCRGDEYDLGHPKNQGNLMEPVYTAQEEKWPDTQTEGIPSPSTNVPSLADTLVCYANTPGYVTHRDLDTGSWYIQKFCQVMADHAHDTDLEDILKKTSEAVGNKRTKKGSMQTGAYDNLGFNKKLYFNPGFFNE
partner: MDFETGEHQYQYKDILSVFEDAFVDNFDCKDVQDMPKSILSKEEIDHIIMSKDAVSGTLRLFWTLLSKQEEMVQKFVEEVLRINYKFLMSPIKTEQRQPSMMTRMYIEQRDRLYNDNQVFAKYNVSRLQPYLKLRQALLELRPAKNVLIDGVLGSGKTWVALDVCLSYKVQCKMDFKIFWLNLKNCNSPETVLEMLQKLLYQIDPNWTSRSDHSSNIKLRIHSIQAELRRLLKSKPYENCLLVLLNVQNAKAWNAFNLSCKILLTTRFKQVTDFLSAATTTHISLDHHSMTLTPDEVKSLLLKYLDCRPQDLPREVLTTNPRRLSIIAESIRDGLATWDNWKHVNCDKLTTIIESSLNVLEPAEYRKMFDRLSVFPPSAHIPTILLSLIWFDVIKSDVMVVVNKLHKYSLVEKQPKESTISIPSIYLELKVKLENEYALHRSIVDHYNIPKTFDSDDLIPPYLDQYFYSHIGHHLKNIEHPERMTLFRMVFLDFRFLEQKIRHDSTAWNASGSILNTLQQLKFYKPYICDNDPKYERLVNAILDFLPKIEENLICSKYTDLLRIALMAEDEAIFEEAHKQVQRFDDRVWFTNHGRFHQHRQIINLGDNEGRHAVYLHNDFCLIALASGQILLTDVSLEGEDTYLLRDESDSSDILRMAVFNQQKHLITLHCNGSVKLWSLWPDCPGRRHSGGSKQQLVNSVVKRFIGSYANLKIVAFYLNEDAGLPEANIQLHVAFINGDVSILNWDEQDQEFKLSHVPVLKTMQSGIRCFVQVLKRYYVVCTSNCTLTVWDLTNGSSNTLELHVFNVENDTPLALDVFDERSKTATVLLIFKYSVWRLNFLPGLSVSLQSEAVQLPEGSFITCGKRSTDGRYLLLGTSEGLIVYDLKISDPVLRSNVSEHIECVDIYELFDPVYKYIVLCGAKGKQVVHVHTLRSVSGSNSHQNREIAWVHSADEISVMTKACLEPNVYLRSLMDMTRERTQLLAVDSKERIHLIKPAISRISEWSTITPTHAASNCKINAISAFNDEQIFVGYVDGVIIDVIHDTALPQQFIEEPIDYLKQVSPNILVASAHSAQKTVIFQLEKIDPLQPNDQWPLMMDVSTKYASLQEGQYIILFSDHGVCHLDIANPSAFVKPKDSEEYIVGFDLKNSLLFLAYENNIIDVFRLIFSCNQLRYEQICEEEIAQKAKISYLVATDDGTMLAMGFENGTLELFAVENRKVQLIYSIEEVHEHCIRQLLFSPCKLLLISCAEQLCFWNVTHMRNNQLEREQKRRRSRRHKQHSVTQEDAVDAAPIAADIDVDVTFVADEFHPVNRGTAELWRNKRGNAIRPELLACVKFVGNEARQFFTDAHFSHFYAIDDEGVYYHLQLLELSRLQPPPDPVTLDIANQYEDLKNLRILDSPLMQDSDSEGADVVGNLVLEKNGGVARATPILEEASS
B2: Caspase Dronc (Drosophila melanogaster (Fruit fly)), Q9XYF4 (parent)
chain: B1 chain

Variants of: B1
Conditions: with apaf_drome Dark

effect of a mutation on the interaction	Variant
increasing interaction	MQPPELEIGMPKRHREHIRKNLNILVEWTNYERLAMECVQQGILTVQMLRNTQDLNGKPFNMDEKDVRVEQHRRLLLKITQRGPTAYNLLINALRNINCLDAAVLLESVDESDSRPPFISLNERRTSRKAADIVDTPSPEASEGPCVSKLRNEPLGALTPYVGVVDGPEVKKSKKIHGGDSAILGTYKMQSRFNRGVLLMVNIMDYPDQNRRRIGAEKDSKSLIHLFQELNFTIFPYGNVNQDQFFKLLTMVTSSSYVQNTECFVMVLMTHGNSVEGKEKVEFCDGSVVDMQKIKDHFQTAKCPYLVNKPKVLMFPFCRGDEYDLGHPKNQGNLMEPVYTAQEEKWPDTQTEGIPSPSTNVPSLADTLVCYANTPGYVTHRDLDTGSWYIQKFCQVMADHAHDTDLEDILKKTSEAVGNKRTKKGSMQTGAYDNLGFNKKLYFNPGFFNE [S130A]
increasing interaction	MQPPELEIGMPKRHREHIRKNLNILVEWTNYERLAMECVQQGILTVQMLRNTQDLNGKPFNMDEKDVRVEQHRRLLLKITQRGPTAYNLLINALRNINCLDAAVLLESVDESDSRPPFISLNERRTSRKSADIVDTPSPEASEGPCVSKLRNEPLGALTPYVGVVDGPEVKKSKKIHGGDSAILGTYKMQSRFNRGVLLMVNIMDYPDQNRRRIGAEKDSKSLIHLFQELNFTIFPYGNVNQDQFFKLLTMVTSSSYVQNTECFVMVLMTHGNSVEGKEKVEFCDGSVVDMQKIKDHFQTAKCPYLVNKPKVLMFPFARGDEYDLGHPKNQGNLMEPVYTAQEEKWPDTQTEGIPSPSTNVPSLADTLVCYANTPGYVTHRDLDTGSWYIQKFCQVMADHAHDTDLEDILKKTSEAVGNKRTKKGSMQTGAYDNLGFNKKLYFNPGFFNE [C318A]

Variants of: B2
Conditions: with kcc2a_drome CaMKII

effect of a mutation on the interaction	Variant
disrupting interaction	MQPPELEIGMPKRHREHIRKNLNILVEWTNYERLAMECVQQGILTVQMLRNTQDLNGKPFNMDEKDVRVEQHRRLLLKITQRGPTAYNLLINALRNINCLDAAVLLESVDESDSRPPFISLNERRTSRKAADIVDTPSPEASEGPCVSKLRNEPLGALTPYVGVVDGPEVKKSKKIHGGDSAILGTYKMQSRFNRGVLLMVNIMDYPDQNRRRIGAEKDSKSLIHLFQELNFTIFPYGNVNQDQFFKLLTMVTSSSYVQNTECFVMVLMTHGNSVEGKEKVEFCDGSVVDMQKIKDHFQTAKCPYLVNKPKVLMFPFCRGDEYDLGHPKNQGNLMEPVYTAQEEKWPDTQTEGIPSPSTNVPSLADTLVCYANTPGYVTHRDLDTGSWYIQKFCQVMADHAHDTDLEDILKKTSEAVGNKRTKKGSMQTGAYDNLGFNKKLYFNPGFFNE [S130A]
